Reference: US20210155697A1 (UNITY BIOTECHNOLOGY, published 2021)

T1: rabbit full-length Tie2 on HEK cells (rabbit)
T1 chain: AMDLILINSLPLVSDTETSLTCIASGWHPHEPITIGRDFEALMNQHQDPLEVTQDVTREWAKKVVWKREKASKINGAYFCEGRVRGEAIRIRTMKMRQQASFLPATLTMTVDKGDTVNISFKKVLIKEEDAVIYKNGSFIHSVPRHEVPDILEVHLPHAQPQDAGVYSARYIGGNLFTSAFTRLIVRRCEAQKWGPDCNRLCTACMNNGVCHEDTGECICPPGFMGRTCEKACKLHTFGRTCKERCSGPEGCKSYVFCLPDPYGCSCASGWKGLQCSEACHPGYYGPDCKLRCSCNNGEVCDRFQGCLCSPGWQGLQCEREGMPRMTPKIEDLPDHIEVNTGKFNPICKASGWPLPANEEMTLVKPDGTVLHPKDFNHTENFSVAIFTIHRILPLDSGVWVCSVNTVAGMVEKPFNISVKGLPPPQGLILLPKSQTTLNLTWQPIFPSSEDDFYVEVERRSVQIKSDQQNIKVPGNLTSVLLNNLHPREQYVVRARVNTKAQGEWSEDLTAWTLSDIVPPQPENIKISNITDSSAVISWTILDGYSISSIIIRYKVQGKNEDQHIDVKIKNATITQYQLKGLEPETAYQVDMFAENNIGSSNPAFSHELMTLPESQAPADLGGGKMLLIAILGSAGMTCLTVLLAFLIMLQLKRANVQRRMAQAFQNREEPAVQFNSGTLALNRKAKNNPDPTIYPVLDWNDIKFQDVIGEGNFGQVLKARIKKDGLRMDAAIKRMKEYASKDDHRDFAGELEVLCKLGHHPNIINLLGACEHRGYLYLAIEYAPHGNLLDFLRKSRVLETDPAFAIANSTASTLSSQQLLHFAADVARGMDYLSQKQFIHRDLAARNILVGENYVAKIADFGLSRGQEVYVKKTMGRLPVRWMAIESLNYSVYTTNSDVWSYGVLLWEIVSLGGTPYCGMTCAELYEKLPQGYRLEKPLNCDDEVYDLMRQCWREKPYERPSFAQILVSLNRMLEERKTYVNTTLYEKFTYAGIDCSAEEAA


Columns and labels:
[1] = target: T2, human full-length Tie2 on cells (human, UniProt Q02763 23-1124); test: cell-based or functional assay
[2] = target: T2, human full-length Tie2 on cells; test: flow cytometry on HEK293/Human Tie2 cells, mAb at 10 ug/mL; set-up: unit not given here
Excerpt: (§1) Briefly, expression plasmids containing the full-length Tie2 coding sequence for each species were used to transfect primary human endothelial cells (HUVECs) as well as human embryonic kidney (HEK293) cells. A stable cell population was selected by treating transfectants with puromycin antibiotic over the course of 2 weeks and single cell clones were generated using fluorescence activated cell sorting. Upon confirmation of cell surface expression of these Tie2 variants, cell lines were used to determine apparent Kd (EC50) values of anti-Tie2 antibodies on the various Tie2 proteins. […] Cells were labeled with decreasing concentrations of anti-Tie2 antibodies #1, #2, and #3 (10, 5, 2.5, 1, […], 0.63, 0.31, and 0.16 ug/mL) or non-specific hIgG1 antibody (10 ug/mL), followed by labeling with a rabbit anti-human IgG antibody conjugated to an Alexa Fluor 488 fluorophore (20 ug/ml). EC50 values were generated using ForeCyt™ software.
Target sequence in this assay (Q02763 23-1124 limits assumed): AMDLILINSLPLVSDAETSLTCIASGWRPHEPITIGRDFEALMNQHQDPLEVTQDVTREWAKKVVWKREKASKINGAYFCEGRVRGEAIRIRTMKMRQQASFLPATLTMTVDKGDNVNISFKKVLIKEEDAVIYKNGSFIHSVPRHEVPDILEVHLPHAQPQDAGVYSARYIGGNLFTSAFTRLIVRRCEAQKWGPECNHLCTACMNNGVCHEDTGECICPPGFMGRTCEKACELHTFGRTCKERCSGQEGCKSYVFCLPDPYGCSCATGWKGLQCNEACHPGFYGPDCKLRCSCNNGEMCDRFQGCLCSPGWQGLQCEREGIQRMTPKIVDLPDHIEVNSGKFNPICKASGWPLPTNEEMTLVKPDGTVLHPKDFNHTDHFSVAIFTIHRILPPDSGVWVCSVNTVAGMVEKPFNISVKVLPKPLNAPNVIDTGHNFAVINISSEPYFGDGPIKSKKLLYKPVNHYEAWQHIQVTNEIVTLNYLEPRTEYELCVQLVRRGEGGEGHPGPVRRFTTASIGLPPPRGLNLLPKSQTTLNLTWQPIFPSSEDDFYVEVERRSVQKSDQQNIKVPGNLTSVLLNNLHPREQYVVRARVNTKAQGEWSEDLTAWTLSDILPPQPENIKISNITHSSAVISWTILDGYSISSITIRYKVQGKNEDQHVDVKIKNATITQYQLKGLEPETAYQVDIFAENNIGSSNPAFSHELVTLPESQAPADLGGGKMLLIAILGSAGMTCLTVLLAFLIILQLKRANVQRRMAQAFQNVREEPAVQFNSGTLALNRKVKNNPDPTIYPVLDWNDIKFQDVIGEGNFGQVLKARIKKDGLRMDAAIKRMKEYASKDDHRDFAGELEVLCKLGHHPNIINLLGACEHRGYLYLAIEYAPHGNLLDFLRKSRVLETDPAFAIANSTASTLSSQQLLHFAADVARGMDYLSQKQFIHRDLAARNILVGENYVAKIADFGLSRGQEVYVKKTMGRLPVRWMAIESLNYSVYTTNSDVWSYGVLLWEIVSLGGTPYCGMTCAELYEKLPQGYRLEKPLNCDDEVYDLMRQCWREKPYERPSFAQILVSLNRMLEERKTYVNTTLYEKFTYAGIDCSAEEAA

[3] = target: T3, cynomolgus monkey full-length Tie2 on HEK293 cells (cynomolgus monkey, UniProt G7PS68 23-1124); test: flow cytometry on HEK293/Cyno Tie2 cells, mAb at 10 ug/mL
T3 construct: whole, on cells; also called HEK293/Cyno Tie2; HEK/cyno Tie2
Excerpt: as §1

[4] = target: T4, murine full-length Tie2 on HEK293 cells (mouse, UniProt Q02858 23-1122); test: flow cytometry on HEK293/Murine Tie2 cells, mAb at 10 ug/mL
T4 construct: whole, on cells; also called HEK293/Murine Tie2; HEK/mTie2
Excerpt: as §1

[5] = target: T5, recombinant mouse Tie2 ECD protein (mouse, UniProt Q02858 23-746); test: SPR (BIACORE), Tie2 ECD immobilized on CM5, Fab as analyte, 25 C
T5 construct: extracellular domain
Procedure: (§2) BIACORE™ (BIAcore, Inc., Piscataway, N.J.) was performed at 25° C. with immobilized human, rat or mouse Tie2 ECD antigens on carboxymethylated dextran biosensor chips (CM5) chips at about 10 response units (RU). CM5 chips were activated with N-ethyl-N′-(3-dimethylaminopropyl)-carbodiimide hydrochloride (EDC) and N-hydroxysuccinimide (NFIS) according to the supplier's instructions. All Tie2 ECD antigens were diluted with 10 mM sodium acetate, pH 4.8, to […] before injection at a flow rate of 5 μl/minute to achieve approximately 10 RU of coupled protein. Following the injection of each Tie2 ECD, 1 M ethanolamine was injected to block unreacted groups. For kinetics measurements, two-fold serial dilutions of the antibody clone #3 Fab (0.78 nM to 500 nM) were injected in PBS with 0.05% polysorbate 20 (TWEEN™-20) surfactant (PBST) at 25° C. at a flow rate of approximately 25 μl/min. Association rates (kon) and dissociation rates (koff) were calculated using a simple one-to-one Langmuir binding model (BIACORE™ Evaluation Software version 3.2) by simultaneously fitting the association and dissociation sensorgrams. The equilibrium dissociation constant (KD) was calculated as the ratio koff/kon. See, for example, Chen et al., J. Mol. Biol. 293:865-881 (1999).

[6] = target: T6, recombinant human Tie2 ECD protein (human, UniProt Q02763 23-748); test: as above
T6 construct: also called human Tie2 extracellular domain
Procedure: as §2

[7] = target: T7, Rat Tie2 ECD (rat, UniProt A0ABK0L6J5 19-740); test: as above
T7 construct: extracellular domain
Procedure: as §2

[8] = target: T3, cynomolgus monkey full-length Tie2 on …; test: flow cytometry on HEK/cyno Tie2 cells; Apparent Kd (EC50 binding)
Excerpt: as §1

[9] = target: T2, human full-length Tie2 on cells; test: flow cytometry on HUVEC; Apparent Kd (EC50 binding)
Excerpt: as §1

[10] = target: T2, human full-length Tie2 on cells; test: flow cytometry on HEK/huTie2 cells; Apparent Kd (EC50 binding)
Excerpt: as §1

[11] = target: T1, rabbit full-length Tie2 on HEK cells; test: flow cytometry on HEK/RbTie2 cells; Apparent Kd (EC50 binding)
Excerpt: as §1

[12] = target: T8, rat full-length Tie2 on HEK cells (rat, UniProt A0ABK0L6J5 19-1116); test: flow cytometry on HEK/ratTie2 cells; Apparent Kd (EC50 binding)
T8 construct: whole, on cells; also called HEK/ratTie2
Excerpt: as §1

T4 sequence (Q02858 23-1122): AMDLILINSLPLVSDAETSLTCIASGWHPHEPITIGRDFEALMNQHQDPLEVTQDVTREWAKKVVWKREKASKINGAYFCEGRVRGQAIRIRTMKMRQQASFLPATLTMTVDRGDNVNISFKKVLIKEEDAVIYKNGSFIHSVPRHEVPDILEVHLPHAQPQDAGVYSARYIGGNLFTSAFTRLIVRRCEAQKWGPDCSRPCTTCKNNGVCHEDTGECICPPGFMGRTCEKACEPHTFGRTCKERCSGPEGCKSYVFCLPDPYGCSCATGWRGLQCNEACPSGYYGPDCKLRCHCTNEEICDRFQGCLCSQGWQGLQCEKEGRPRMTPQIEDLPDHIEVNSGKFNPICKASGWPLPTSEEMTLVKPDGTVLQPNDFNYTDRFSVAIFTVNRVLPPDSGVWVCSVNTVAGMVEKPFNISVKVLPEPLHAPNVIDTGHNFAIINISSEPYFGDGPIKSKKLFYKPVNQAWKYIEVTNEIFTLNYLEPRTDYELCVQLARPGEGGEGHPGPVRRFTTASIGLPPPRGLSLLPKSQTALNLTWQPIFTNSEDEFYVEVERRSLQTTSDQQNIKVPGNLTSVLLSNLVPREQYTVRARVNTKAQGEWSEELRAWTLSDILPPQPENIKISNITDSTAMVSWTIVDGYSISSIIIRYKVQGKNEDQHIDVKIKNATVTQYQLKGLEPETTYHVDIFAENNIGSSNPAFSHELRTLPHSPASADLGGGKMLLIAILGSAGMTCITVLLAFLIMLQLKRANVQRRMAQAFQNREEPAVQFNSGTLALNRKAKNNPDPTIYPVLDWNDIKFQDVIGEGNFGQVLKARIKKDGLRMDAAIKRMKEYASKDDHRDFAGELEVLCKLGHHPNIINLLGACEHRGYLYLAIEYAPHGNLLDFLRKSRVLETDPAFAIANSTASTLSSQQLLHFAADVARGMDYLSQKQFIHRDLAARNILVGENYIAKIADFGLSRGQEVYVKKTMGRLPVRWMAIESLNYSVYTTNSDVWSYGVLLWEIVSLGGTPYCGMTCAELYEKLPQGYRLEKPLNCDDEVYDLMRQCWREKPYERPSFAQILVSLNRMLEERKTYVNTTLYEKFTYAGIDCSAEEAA
T6 sequence (Q02763 23-748 limits assumed): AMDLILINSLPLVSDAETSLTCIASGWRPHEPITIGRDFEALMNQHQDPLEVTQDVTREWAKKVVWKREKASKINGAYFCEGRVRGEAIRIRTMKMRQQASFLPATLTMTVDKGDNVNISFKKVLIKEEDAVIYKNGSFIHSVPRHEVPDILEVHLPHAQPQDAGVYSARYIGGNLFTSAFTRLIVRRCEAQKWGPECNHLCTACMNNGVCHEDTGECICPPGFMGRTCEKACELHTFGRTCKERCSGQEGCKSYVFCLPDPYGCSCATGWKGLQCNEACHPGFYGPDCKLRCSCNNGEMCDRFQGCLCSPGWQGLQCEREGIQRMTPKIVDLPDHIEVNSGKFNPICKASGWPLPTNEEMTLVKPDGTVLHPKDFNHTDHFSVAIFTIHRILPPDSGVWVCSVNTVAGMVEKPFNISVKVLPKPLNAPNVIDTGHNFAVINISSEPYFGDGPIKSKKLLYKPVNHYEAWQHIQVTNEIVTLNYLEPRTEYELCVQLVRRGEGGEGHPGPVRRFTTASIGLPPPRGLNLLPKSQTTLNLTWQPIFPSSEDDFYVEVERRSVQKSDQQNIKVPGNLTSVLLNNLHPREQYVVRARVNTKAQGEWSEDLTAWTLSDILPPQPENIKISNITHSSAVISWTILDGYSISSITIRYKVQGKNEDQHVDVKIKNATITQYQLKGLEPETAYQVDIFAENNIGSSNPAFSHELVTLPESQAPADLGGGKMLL
T5 sequence (Q02858 23-746): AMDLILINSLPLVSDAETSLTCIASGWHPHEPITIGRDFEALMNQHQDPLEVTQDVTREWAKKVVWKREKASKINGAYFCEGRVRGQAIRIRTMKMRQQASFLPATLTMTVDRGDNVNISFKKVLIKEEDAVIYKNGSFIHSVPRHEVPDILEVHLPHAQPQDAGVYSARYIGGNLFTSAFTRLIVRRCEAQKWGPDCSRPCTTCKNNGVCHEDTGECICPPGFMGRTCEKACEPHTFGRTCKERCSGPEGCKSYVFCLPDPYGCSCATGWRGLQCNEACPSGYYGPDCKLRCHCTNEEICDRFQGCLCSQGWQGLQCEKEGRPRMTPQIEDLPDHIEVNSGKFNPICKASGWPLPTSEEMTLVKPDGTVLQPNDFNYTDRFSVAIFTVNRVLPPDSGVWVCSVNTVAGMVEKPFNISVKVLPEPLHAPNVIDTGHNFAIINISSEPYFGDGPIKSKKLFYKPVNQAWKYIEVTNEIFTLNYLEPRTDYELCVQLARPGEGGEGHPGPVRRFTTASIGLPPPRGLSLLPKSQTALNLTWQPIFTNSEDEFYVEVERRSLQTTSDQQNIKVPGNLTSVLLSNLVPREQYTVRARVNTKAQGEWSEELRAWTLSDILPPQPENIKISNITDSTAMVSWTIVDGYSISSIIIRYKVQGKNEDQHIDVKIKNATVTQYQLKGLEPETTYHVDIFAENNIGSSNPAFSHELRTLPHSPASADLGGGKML

Binder | EC50 of pAkt relative to total Akt in HUVEC cells (western blot, quantitative fluorescence imaging) [1] | Cross-Reactivity Screen (mAb at 10 ug/mL) [2] | Cross-Reactivity Screen (mAb at 10 ug/mL) [3] | Cross-Reactivity Screen (mAb at 10 ug/mL) [4] | also measured
Angiopoietin-1 (ligand, UniProt Q15389 20-498, looked up) SNQRRSPENSGRRYNRIQHGQCAYTFILPEHDGNCRESTTDQYNTNALQRDAPHVEPDFSSQKLQHLEHVMENYTQWLQKLENYIVENMKSEMAQIQQNAVQNHTATMLEIGTSLLSQTAEQTRKLTDVETQVLNQTSRLEIQLLENSLSTYKLEKQLLQQTNEILKIHEKNSLLEHKILEMEGKHKEELDTLKEEKENLQGLVTRQTYIIQELEKQLNRATTNNSVLQKQQLELMDTVHNLVNLCTKEGVLLKGGKREEEKPFRDCADVYQAGFNKSGIYTIYINNMPEPKKVFCNMDVNGGGWTVIQHREDGSLDFQRGWKEYKMGFGNPSGEYWLGNEFIFAITSQRQYMLRIELMDWEGNRAYSQYDRFHIGNEKQNYRLYLKGHTGTAGKQSSLILHGADFSTKDADNDNCMCKCALMLTGGWWFDACGPSNLNGMFYTAGQNHGKLNGIKWHYFKGPSYSLRSTTMMIRPLDF | 0.54 nM |  |  |  | 
anti-Tie2 antibody #5 (antibody, V domains shown, also called Ab #5; Antibody Clone # 5) VH: DVQLVESGGGVVRPGESLRLSCTASGFSFDVYAMTWVRQAPGKGLEWLTLISGTGRMTYYADSVKGRFTVSRDNSKKTLYLQMNSLRAEDTAVYYCAKDPFGHGFFDYWGLGTLVTVSS VL: EIVLTQSPGTLSLSPGERATLSCRASQTVGSKLAWYQQKPGQAPRLLIYDASTRATGIPDRFSGSGSGTDFTLTISSLQSEDFAVYYCQQYNNWPPLTFGGGTKVEIK |  | 60.2 | 73.1 | 0.2 | 
antibody clone #3 Fab (Fab, V domains shown) VH: DVQLVESGGGVVRPGESLRLSCTASGFTFDSYGMSWVRQAPGKGLEWVSSINVGDNTYYADSVRGRFIISRDSSRNTLYLQMNSLTAEDTAVYYCANWNSFFDYWGLGTLVTVSS VL: EIVLTQSPGTLSLSPGEIATLSCRASQNVRSDLAWYQQKPGQAPRLLIYDASNRATGIPDRFSGSGSGTDFTLTISSLQSEDFAVYYCQQYSNWPPLTFGGGTKVEIK |  |  |  |  | Kd [5]: 3.21 nM; koff [5]: 0.000876 s⁻¹; kon [5]: 273000 M⁻¹ s⁻¹; Kd [6]: 2.34 nM; koff [6]: 0.000377 s⁻¹; kon [6]: 161000 M⁻¹ s⁻¹; Kd [7]: 2.56 nM; kon [7]: 254000 M⁻¹ s⁻¹
human anti-Tie2 antibody #2 (antibody, V domains shown, also called Ab #2; Antibody Clone # 2) VH: DVQLVESGGGVVRPGESLRLSCAASGFSFINFAMTWVRQAPGEGPEWVSLISDDGRGNRPYYADSVKGRFTISRDNSKNILYLQMNSLRVEDTATYYCAKVSWDVFFDYWGLGTVVTVSS VL: EIVLTQSPGTVSLSPGERVTLSCRASQPIDVYLAWYQQKPGQAPRLLIYGANRRAIDIPDRFSGSGSGTEFTLTINSLQNEDFAVYFCQQYMTWPPVTFGGGTKVEIK | 0.48 nM | 64.9 | 53.2 | 41.7 | EC50 [11]: 4.1 nM; EC50 [8]: 7.7 nM; EC50 [12]: 1.4 nM; EC50 [9]: 1 nM; EC50 [10]: 2.7 nM

Now from value to binder, other results behind:

EC50 of pAkt relative to total Akt in HUVEC cells (western blot, quantitative fluorescence imaging) [1] | Cross-Reactivity Screen (mAb at 10 ug/mL) [2] | Cross-Reactivity Screen (mAb at 10 ug/mL) [3] | Cross-Reactivity Screen (mAb at 10 ug/mL) [4] | Binder | also measured
 | 63.7 | 78.8 | 0.3 | anti-Tie2 antibody #6 (antibody, V domains shown, also called Ab #6; Antibody Clone # 6) VH: DVQLVESGGGVVRPGESLRLSCTASGFSFDVYAMTWVRQAPGKGLEWLTLISGTGRMTYYADSVKGRFTVSRDNSKKTLYLQMNSLRAEDTAVYYCAKDPFGHGFFDYWGLGTLVTVSS VL: EIVLTQSPGTLTLSPGETATLTCRASQSVNRNLAWYQEKPDQAPRLLIYDARTRATGVPDRFSGSGSGTDFTLTINSLQSEDFAVYVCQQYYDWPPFTFGGGTKVEIK | 
0.91 nM | 60.7 | 74.1 | 0.4 | human anti-Tie2 antibody #1 (antibody, V domains shown, also called Ab #1; Antibody Clone # 1) VH: DVQLVESGGGVVRPGESLRLSCAASGFTFSSYAMSWVRQAPGEGLEWVARISDYTIYYADSVKGRFTISRDNSKNTLYLQMNSLRAEDTAVYYCAKSGPKSGKYWNNFFDSWGLGTLVTVSS VL: EIVLTQSPGTLSVSPGERATLTCRASQSVKTDLAWYQQKPGQAPRLLIYGATTRATGIPARFSGSGSGTEFTLTITNLQSEDFAVYYCQQYYVWPPLTFGGGTKVEIK | EC50 [8]: 7.8 nM; EC50 [9]: 2 nM; EC50 [10]: 8 nM
 | 65.3 | 47.5 | 28.5 | anti-Tie2 antibody #31 (antibody, V domains shown, also called Ab #31; Antibody Clone # 31) VH: DVQLVESGGGVVRPGESPRLSCAASGFSFINFAMTWVRQAPGEGPEWVSLISDDGRGNRPYYADSVKGRFTISRDNSKNILYLQMNSLRVEDTATYYCAKVSWDVFFDYWGLGTLVTVSS VL: EIVLTQSPGTVSLSPGERVTLSCRASQPIDVYLAWYQQKPGQAPRLLIYGANRRAIDIPDRFSGSGSGTEFTLTINSLQNEDFAVYFCQQYMTWPPVTFGGGTKVEIK | 
